Laboratory results: patent US20250003958A1

Assays:
[1] = molecular target: CD4 on CD4-positive cells (PBMCs) (UniProt P01730); assay: negative control; cells trapped by beads, released with DNase I, flow cytometry
[2] = molecular target: CD8 on CD8-positive cells (PBMCs in Example 1, Immuno-Trol cells in Example 3) (UniProt P01732); assay: as above
[3] = molecular target: CD8 on CD8-positive cells (PBMCs in Example 1, Immuno-Trol cells in Example 3) (UniProt P01732); assay: negative control; magnetic bead depletion of PBMCs, flow cytometry of the supernatant (28% before addition of beads)
[4] = molecular target: CD8 on CD8-positive cells (PBMCs in Example 1, Immuno-Trol cells in Example 3) (UniProt P01732); assay: negative control; magnetic bead depletion of PBMCs, flow cytometry of the supernatant (72% before addition of beads)
[5] = molecular target: CD4 on CD4-positive cells (PBMCs) (UniProt P01730); assay: negative control; magnetic bead depletion of PBMCs, flow cytometry of the supernatant (18% before addition of beads)
[6] = molecular target: CD4 on CD4-positive cells (PBMCs) (UniProt P01730); assay: negative control; magnetic bead depletion of PBMCs, flow cytometry of the supernatant (82% before addition of beads)
[7] = molecular target: CD8 on CD8-positive cells (PBMCs in Example 1, Immuno-Trol cells in Example 3) (UniProt P01732); assay: negative control; magnetic bead depletion of Immuno-Trol cells, flow cytometry of the supernatant (41% before addition of beads)
[8] = molecular target: CD8 on CD8-positive cells (PBMCs in Example 1, Immuno-Trol cells in Example 3) (UniProt P01732); assay: negative control; magnetic bead depletion of Immuno-Trol cells, flow cytometry of the supernatant (59% before addition of beads)

Chain of UniProt P01732 (P01732 22-235): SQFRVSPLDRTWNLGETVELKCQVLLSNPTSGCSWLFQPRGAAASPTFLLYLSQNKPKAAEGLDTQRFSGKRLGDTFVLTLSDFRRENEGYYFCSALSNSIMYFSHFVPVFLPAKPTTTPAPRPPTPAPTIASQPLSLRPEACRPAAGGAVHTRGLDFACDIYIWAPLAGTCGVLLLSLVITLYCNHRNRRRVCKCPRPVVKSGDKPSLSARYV

| Ratio of FITC-positive cells [1] [%] | Ratio of FITC-positive cells [2] [%] | Ratio of CD3-positive and CD4-negative cells remaining in the supernatant [3] [%] | Ratio of CD3-positive and CD4-positive cells remaining in the supernatant [4] [%] | Ratio of CD3-positive and CD8-positive cells remaining in the supernatant [5] [%] | Ratio of CD3-positive and CD8-negative cells remaining in the supernatant [6] [%] | Ratio of CD3-positive and CD4-negative cells remaining in the supernatant [7] [%] | Ratio of CD3-positive and CD4-positive cells remaining in the supernatant [8] [%] | Substance |
| --- | --- | --- | --- | --- | --- | --- | --- | --- |
| 26 | 19 | 33 | 67 | 19 | 81 | – | – | Isotype Control antibody (Biolegend), modified with FITC-introduced synthetic oligo-DNA linker and immobilized on streptavidin magnetic beads |
| – | – | – | – | – | – | 39 | 61 | Control antibody (Biolegend), held on streptavidin magnetic beads through oligo-DNA-modified Protein A/G |
